{"source": "patent US20030134779A1", "about": "“Method and composition for treatment and/or prevention of antibiotic-resistant microorganism infections” (priority 2002, published 2003)", "molecules": {"B1": {"name": "LF: bovine lactoferrin, 80-kDa iron-binding glycoprotein found in milk (protein, UniProt P24627 20-708, looked up)", "Lactotransferrin": "APRKNVRWCTISQPEWFKCRRWQWRMKKLGAPSITCVRRAFALECIRAIAEKKADAVTLDGGMVFEAGRDPYKLRPVAAEIYGTKESPQTHYYAVAVVKKGSNFQLDQLQGRKSCHTGLGRSAGWIIPMGILRPYLSWTESLEPLQGAVAKFFSASCVPCIDRQAYPNLCQLCKGEGENQCACSSREPYFGYSGAFKCLQDGAGDVAFVKETTVFENLPEKADRDQYELLCLNNSRAPVDAFKECHLAQVPSHAVVARSVDGKEDLIWKLLSKAQEKFGKNKSRSFQLFGSPPGQRDLLFKDSALGFLRIPSKVDSALYLGSRYLTTLKNLRETAEEVKARYTRVVWCAVGPEEQKKCQQWSQQSGQNVTCATASTTDDCIVLVLKGEADALNLDGGYIYTAGKCGLVPVLAENRKSSKHSSLDCVLRPTEGYLAVAVVKKANEGLTWNSLKDKKSCHTAVDRTAGWNIPMGLIVNQTGSCAFDEFFSQSCAPGADPKSRLCALCAGDDQGLDKCVPNSKEKYYGYTGAFRCLAEDVGDVAFVKNDTVWENTNGESTADWAKNLNREDFRLLCLDGTRKPVTEAQSCHLAVAPNHAVVSRSDRAAHVKQVLLHQQALFGKNGKNCPDKFCLFKSETKNLLFNDNTECLAKLGGRPTYEEYLGTEYVTAIANLKKCSTSPLLEACAFLTR"}}, "assay_type_in_all_cases": "cell-based, Staphylococcus aureus", "key": {"S. aureus strains": {"system": "S. aureus strains", "assay": "MIC / FIC determination, summary over strains", "conditions": "strains of Table 1", "text": "Staphylococcus aureus strains ATCC 25923 and 6538 and Escherichia coli ATCC 25922 were obtained from the American Type Culture Collection. Eight bovine mastitis clinical isolates of S. aureus (SHY97-3906, -3923, -4085 -4242, -4320 and -4343, RFT-1 and RFT-5) and one isolate of E. coli SHY97-3923-2 and one isolate of Kiebsiella pneumoniae SHY99-723-1 were kindly provided by the Laboratoire Provincial de Pathologie Animale of St-Hyacinthe and of Rock-Forest (Quebec, Canada), respectively. Nine β-lactam antibiotics resistant S. aureus strains (PC-1, NCTC 9789, 2076, 22260, ST79/741, 3804, RN9, FAR8, and FAR10) were obtained from Vanderbilt University School of Medicine (Nashville, Tenn., USA). […]\nThe MICs were determined by both macrodilution (1 ml/tube) and microdilution (100 μl/well) in sterile 96 well microtiter plates (International Nunc, Napierville, Ill.) techniques in three separate experiments according to the National Committee for Clinical Laboratory Standards (1992 and 1999) in three separate experiments. […] Effect of LF combination with antibiotic on MICs were determined by adding 0.5 mg or 1 mg/ml of LF to each antibiotic dilution. […] Effect of LF or LFC combination with antibiotic on MIC was also determined by checkerboard method using 96 well microtiter plates. […] The fractional inhibitory concentration (FIC) was calculated as described by Eliopoulos and Moellering (1991). […]"}, "S. aureus ATCC 25923": {"system": "S. aureus ATCC 25923", "assay": "Cell morphology by transmission electron microscopy", "conditions": "LF 9.1 μg/ml alone; 18-h", "protocol": "Bacterial cells were grown overnight on MHA or MHB containing sub-MICs of penicillin G with or without LF or LFC. Microorganisms were prepared for transmission electron microscopy by fixation with glutaraldehyde followed by ferritin labelling. This method allows good- preservation of capsular material. Briefly, bacterial cells grown in the presence or absence of antibiotics were fixed in cacodylate buffer (0.1 M, pH 7.0) containing 5% (v/v) glutaraldehyde, for 2 h at 20° C. Fixed microorganims were suspended in cacodylate buffer and allowed to react with the polycationic ferritin (Sigma Chemicals, St-Louis, Mo.; final concentration 1.0 mg/ml) for 30 min at 20° C. The reaction was slowed down by 10-fold dilution with buffer, and the microorganisms were centrifuged and washed three times in cacodylate buffer. Bacterial cells were then immobilized in 4% (w/v) agar, washed 5 times in cacodylate buffer and post-fixed with 2% (w/v) osmium tetroxide for 2 h. Washings were repeated as above, and the samples dehydrated in a graded series of acetone washes. Samples were then washed twice in propylene oxide and embedded in Spurr low-viscosity resin. Thin sections were post-stained with uranyl acetate and lead citrate and examined with an electron microscope (Philips 201) at an accelerating voltage of 60 kV."}, "S. aureus SHY97-4320": {"system": "S. aureus SHY97-4320", "assay": "WGA-gold labelling of cell wall and cell division, electron microscopy", "protocol": "To investigate the mechanism of action of LF in combination with penicillin G on cell division, transmission electron microscopy was also performed on thin section of a β-lactamase producing S. aureus SHY97-4320. Bacterial cells were grown in MHB containing 8 μg/ml of penicillin G, 1 mg/ml LF alone or in combination for 4-h at 37° C. with agitation at 150 rpm. Bacteria were harvested and incubated or not for 2-h in 0.02 M Tris (pH 7.4) containing 0.15 M NaCl, 0.5 mg/ml and 50 μl of wheat germ agglutinin (WGA) gold (Sigma Chemicals, St-Louis, Mo.) for 2 h. Bacteria cell morphology was evaluated by transmission electron microscopy as previously described. Effects of treatments were evaluated and compared by “t” test. […] The WGA has an affinity for N-acetyl-β-D-glucosamyl residues and N-acetyl-β-D-glucosamine oligomer. After treatment with LF, S. aureus cells were less covered (P<0.005) with WGA-gold (FIG. 12 and Table 3)."}}, "data": [{"molecule": "B1", "values": [{"measurement": "MICs of lactoferrin alone", "setting": "S. aureus strains", "result": "greater than 25 mg/ml"}, {"measurement": "cell morphology", "setting": "S. aureus ATCC 25923", "result": "no obvious effect"}, {"measurement": "cell division", "setting": "S. aureus SHY97-4320; LF 1 mg/ml alone or in combination with penicillin", "result": "Groups of multiple undivided cell"}, {"measurement": "coverage of cells with WGA-gold", "setting": "S. aureus SHY97-4320; after treatment with LF, P<0.005", "result": "less covered"}]}]}
